Results taken from article PMC6695210, “Bipartite interface of the measles virus phosphoprotein X domain with the large polymerase protein regulates viral polymerase dynamics” (PLoS Pathogens, 2019).
Residue numbers refer to the chain shown, from its start.

B1: MeV P (361–364)Ala, P with residues 361–364 substituted with alanines (natural protein, measles virus (strain IC-B), UniProt Q9WMB4 1-507, looked up)
chain: MAEEQARHVKNGLECIRALKAEPIGSLAVEEAMAAWSEISDNPGQDRATCKEEEAGSSGLSKPCLSAIGSTEGGAPRIRGQGSGESDDDAETLGIPSRNLQASSTGLQCYHVYDHSGEAVKGIQDADSIMVQSGLDGDSTLSGGDDESENSDVDIGEPDTEGYAITDRGSAPISMGFRASDVETAEGGEIHELLKLQSRGNNFPKLGKTLNVPPPPNPSRASTSETPIKKGTDARLASFGTEIASLLTGGATQCARKSPSEPSGPGAPAGNVPECVSNAALIQEWTPESGTTISPRSQNNEEGGDYYDDELFSDVQDIKTALAKIHEDNQKIISKLESLLLLKGEVESIKKQINRQNISIAAAAGHLSSIMIAIPGLGKDPNDPTADVELNPDLKPIIGRDSGRALAEVLKKPVASRQLQGMTNGRTSSRGQLLKEFQLKPIGKKVSSAVGFVPDTGPASRSVIRSIIKSSRLEEDRKRYLMTLLDDIKGANDLAKFHQMLMKIIMK
notes: MeV strain IC-B phosphoprotein P; of the old residues only S361 is printed in the text; also called M1; source: transiently transfected cells, in lysate; not shown: HA, C-terminal, kept
B2: MeV phosphoprotein (P), wild type (natural protein)
chain: B1 chain with A361S, A362T, A363L, A364E
notes: measles virus (MeV) strain IC-B phosphoprotein P, codon-optimized synthetic ORF; ends at residue 507 by the printed limits of P-XD (459–507); also called wild type P; wt P; not shown: HA, C-terminal, kept

Experiments:
Test in all cases: native gel or EMSA; native PAGE (3–12% Bis-Tris gradient gels, G-250 additive) of cleared lysates of transfected cells, immunoblot; trimeric and dimeric GCN4 variants as mobility reference
[1] = molecular target: MeV P with residues 303–377 replaced by the tetrameric mutant of the yeast GCN4 coiled-coil (measles virus (strain IC-B) | yeast) (UniProt Q9WMB4)
[2] = molecular target: MeV P-GCN4_(303-360), P with OD residues 303–360 replaced by the tetrameric mutant of the yeast GCN4 coiled-coil (measles virus (strain IC-B) | yeast) (UniProt Q9WMB4)
[3] = molecular target: the molecule itself

Molecule | stoichiometry N [3] | other results
MeV P with residues 303–377 replaced by the tetrameric mutant of the yeast GCN4 coiled-coil (from UniProt Q9WMB4 1-302; Q9WMB4 378-507) |  | stoichiometry N [1]: 4
MeV P-GCN4_(303-360), P with OD residues 303–360 replaced by the tetrameric mutant of the yeast GCN4 coiled-coil (from UniProt Q9WMB4 1-302; Q9WMB4 361-507) |  | stoichiometry N [2]: 4
B1 | 4 | 
B2 | 4 | 
